Experimental data: PMC8706527

Tests used:
[1] = molecular target: recombinant human FcγRIIIa-Phe (human) (UniProt P08637); experiment: SPR
[2] = molecular target: recombinant human neonatal Fc receptor (rhFcRn) (human) (UniProt P55899); experiment: SPR
Chain of recombinant human neonatal Fc receptor (rhFcRn) (human) (P55899 whole entry, looked up, tested part not stated): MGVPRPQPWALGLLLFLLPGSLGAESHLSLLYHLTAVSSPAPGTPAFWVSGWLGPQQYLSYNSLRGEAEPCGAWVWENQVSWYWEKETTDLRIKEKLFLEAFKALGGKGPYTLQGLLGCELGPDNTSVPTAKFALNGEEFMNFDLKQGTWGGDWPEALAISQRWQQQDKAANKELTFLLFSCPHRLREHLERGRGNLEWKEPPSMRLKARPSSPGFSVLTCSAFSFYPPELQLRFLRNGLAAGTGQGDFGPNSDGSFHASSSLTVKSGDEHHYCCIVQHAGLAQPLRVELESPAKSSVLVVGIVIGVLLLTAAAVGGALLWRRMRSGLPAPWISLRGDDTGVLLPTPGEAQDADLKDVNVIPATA

Chain of recombinant human FcγRIIIa-Phe (human) (P08637 17-208): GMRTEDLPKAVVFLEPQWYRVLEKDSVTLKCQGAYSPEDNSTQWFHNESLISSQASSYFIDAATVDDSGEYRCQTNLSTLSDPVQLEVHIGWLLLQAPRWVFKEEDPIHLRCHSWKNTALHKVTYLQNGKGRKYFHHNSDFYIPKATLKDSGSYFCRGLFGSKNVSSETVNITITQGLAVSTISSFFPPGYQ

Substance: wild type IgG1 (modified ZRC-3308 mAb with wild type Fc) (antibody)
- Kd [1]: 1620 nM
- Kd [2]: 195 nM
- kon [2]: 986000 M⁻¹ s⁻¹
